According to paper PMC2062912:

Molecular target: recombinant avidin (hen) (UniProt P02701)
Test: SEC + other: electrophoresis; purified renatured rec-AV alone; conditions not given; details referred to Shin et al, 1997

With “recombinant avidin (from UniProt P02701 25-152) (natural protein)” the stoichiometry N was 4.
